Source: patent US20250002593A1 (INMAGENE PTE, published 2025)
Residue numbers refer to the chain shown, from its start. Names may count otherwise.

B1: 5F7-2a8-QA (antibody, human IgG4 S228P, kappa)
heavy: EVQLVESGGGLVKPGGSLRLSCAASGFAFGDYYMNWVRQAPGKGLEWVALIRNKAAGYTIYYSAPVKGRFTISRDDSKSTLYLQMNSLKTEDTAVYYCVRDMTIYDGYYVDYALDYWGQGTLVTVSSASTKGPSVFPLAPCSRSTSESTAALGCLVKDYFPEPVTVSWNSGALTSGVHTFPAVLQSSGLYSLSSVVTVPSSSLGTKTYTCNVDHKPSNTKVDKRVESKYGPPCPPCPAPEFLGGPSVFLFPPKPKDTLMISRTPEVTCVVVDVSQEDPEVQFNWYVDGVEVHNAKTKPREEQFNSTYRVVSVLQVLHQDWLNGKEYKCKVSNKGLPSSIEKTISKAKGQPREPQVYTLPPSQEEMTKNQVSLTCLVKGFYPSDIAVEWESNGQPENNYKTTPPVLDSDGSFFLYSRLTVDKSRWQEGNVFSCSVMHEALHAHYTQKSLSLSLGK
light: DIVMTQSPSSVSASVGDRVTITCRASRNINIWLSWYQQKPGKAPKLFIYKASNLHTGVPSRFSGSGSGTDFTLTISSLQPEDFATYYCLQSQSYPLTFGQGTKLEIKRTVAAPSVFIFPPSDEQLKSGTASVVCLLNNFYPREAKVQWKVDNALQSGNSQESVTEQDSKDSTYSLSSTLTLSKADYEKHKVYACEVTHQGLSSPVTKSFNRGEC
notes: 5F7-2a8 with T307Q/N434A in the IgG4 (S228P) Fc; also called 5F7-QA
B2: 5F7-2a8-YTE (antibody, human IgG4 S228P, kappa)
heavy: B1 heavy with M259Y, S261T, T263E, Q314T, A441N
light: B1 light
notes: 5F7-2a8 with M252Y/S254T/T256E in the IgG4 (S228P) Fc; also called 5F7-YTE

Experiments:
[1] = molecular target: T1, recombinant hFcRn-his/B2M heterodimer protein (Acrobio, Cat #FCM-H82W4) (human, UniProt P55899 24-297; P61769 21-119); experiment: BLI (Gator) at pH 6.0, hFcRn-his/B2M on anti-his sensor, antibody analyte
T1 construct: Bought heterodimer
Experimental: (§1) The binding affinity of antibodies to hFcRn was evaluated with Gator Bio-analysis system. Briefly, recombinant hFcRn-his/B2M heterodimer protein (Acrobio, Cat #FCM-H82W4) was loaded to anti-his sensor, serially diluted antibodies were used as analyte. Association and dissociation were performed in pH6.0 KD buffer.

[2] = molecular target: T1, recombinant hFcRn-his/B2M heterodimer …; experiment: as above; remark: listed apart in the source
Experimental: as §1

T1 sequence (P55899 24-297 limits assumed, chain 1 of 2): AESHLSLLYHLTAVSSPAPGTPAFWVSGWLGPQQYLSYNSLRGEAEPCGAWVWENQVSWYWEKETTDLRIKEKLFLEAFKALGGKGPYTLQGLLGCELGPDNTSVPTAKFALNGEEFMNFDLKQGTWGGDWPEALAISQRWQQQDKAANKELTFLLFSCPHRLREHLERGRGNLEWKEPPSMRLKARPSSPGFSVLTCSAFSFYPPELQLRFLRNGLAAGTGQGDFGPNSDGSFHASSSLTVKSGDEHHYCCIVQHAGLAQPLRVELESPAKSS
T1 sequence (P61769 21-119 limits assumed, chain 2 of 2): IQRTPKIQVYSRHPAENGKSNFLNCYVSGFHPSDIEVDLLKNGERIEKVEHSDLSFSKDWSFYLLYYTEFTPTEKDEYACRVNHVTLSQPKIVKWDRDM

| Binder | Kd [1] [nM] | koff [1] [s⁻¹] | kon [1] [M⁻¹ s⁻¹] | fold increase of binding affinity against 5F7-2a8-WT [2] [fold] |
| --- | --- | --- | --- | --- |
| B1 | 13.7 | 0.00398 | 290000 | ~10 |
| B2 | 15.4 | 0.00277 | 180000 | ~10 |
